Measurements from publication PMC8232969 (Cell, 2021).

B1: DH1047 Fab (Fab, V domains shown)
VH: QVQLVQSGAEVKKPGASVQVSCQASANTFTNHYIHWVRQAPGQGLEWMGIIYPTGGNTIYAQGFQGRVTMTRDTSLNTIYLELSSLRSEDTAVYYCARDVRVDDSWSGYDLLSGGTYFDYWGQGTLVTVSS
VL: not shown
B2: DH1041 Fab (Fab, V domains shown)
VH: EVQLVESGGGLVQPGGSLRLSCAASGVTFSSYWMSWVRQAPGKGLEWVANIRQDGSEKYSVDSVKGRFTISRDNAKNSLYLQMNSLRAEDTAVYYCARARRADNSGYYGFHFDCWGQGTLVTVSS
VL: QSVLTQPPSVSGAPGQRVTISCTGSSSNIGAGYDVHWYQQLPGTAPKLLIYGNNNRPSGVPDRFSDSKSGTSASLAITRLQAEDEADYYCQSYDSSLSGWVFGGGTKLTVL

Molecular target: SARS-CoV-2 Spike-2P (stabilized S ectodomain trimer) (SARS-CoV-2, UniProt P0DTC2)
Experiment: cryo-EM structure

Binder	stoichiometry N
B1	3 Fabs per S-2P trimer
B2	3 Fabs per S-2P trimer
